This experiment addresses T1, CGRP receptor on rat CNS1 glioma cells (rat, UniProt Q63118 24-464; Q9JJ74 27-148).
T1 construct: whole, on cells; Endogenous receptor; also called CGRP receptors of CNS1 glioma cells
As to the kind of experiment: fluorescence microscopy, 30 nM FL-CGRP on CNS1 cells. The protocol: FIG. 13 is a panel of microscopy images illustrating that FL-CGRP binds to CNS1 glioma cells. CNS1 cells were incubated with 30 nM FL-CGRP for 30 minutes, and imaged using phase-contrast microscopy (right, upper and lower panels) and fluorescent microscopy for FL-CGRP (left, upper and lower panels).

No end group written: not given here. Alexa488 = Alexa488 dye (single fluorescent dye molecule)

T1 sequence (Q63118 24-464, chain 1 of 2): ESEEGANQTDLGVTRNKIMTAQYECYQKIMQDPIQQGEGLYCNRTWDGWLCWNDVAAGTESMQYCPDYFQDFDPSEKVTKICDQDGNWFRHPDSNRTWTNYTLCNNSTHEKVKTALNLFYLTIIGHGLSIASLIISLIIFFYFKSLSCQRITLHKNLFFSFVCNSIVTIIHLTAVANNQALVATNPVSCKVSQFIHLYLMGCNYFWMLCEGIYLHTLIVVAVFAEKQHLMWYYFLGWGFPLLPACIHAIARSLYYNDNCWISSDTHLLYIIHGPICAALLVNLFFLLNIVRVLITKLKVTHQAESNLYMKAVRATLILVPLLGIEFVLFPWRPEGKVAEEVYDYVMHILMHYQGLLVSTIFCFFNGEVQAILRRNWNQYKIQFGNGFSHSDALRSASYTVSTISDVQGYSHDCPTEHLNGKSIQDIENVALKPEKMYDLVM
T1 sequence (Q9JJ74 27-148, chain 2 of 2): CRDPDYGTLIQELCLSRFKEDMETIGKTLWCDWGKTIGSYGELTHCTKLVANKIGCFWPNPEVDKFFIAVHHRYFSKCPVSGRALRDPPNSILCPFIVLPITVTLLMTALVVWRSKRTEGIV

B1: fluorescently-labeled CGRP (FL-CGRP): rat CGRP with a single Alexa488 dye on lysine 24 (peptide, UniProt P01256 83-119, looked up)
peptide: SCNTATCVTHRLAGLLSRSGGVVK(Alexa488)DNFVPTNVGSEAF
modifications: ends and bridges not checked
notes: mature; the peptide itself is the mature 37-mer; also called single-labeled FL-CGRP
As to B1, the binding result is given as “binds”.

The values are drawn from patent US20110189205A1 (UNIVERSITY OF ROCHESTER, published 2011).
